The record followed here is publication PMC9062740.

For this assay, the target named is taxol-stabilized microtubules polymerized from porcine brain tubulin (UniProt P02550). Kind of assay: MT-binding assay (cosedimentation). Conditions: 5 μM CG2 mutant, […] taxol–MTs; parent: est. 1.0; read off a plot.
Chain of taxol-stabilized microtubules polymerized from porcine brain tubulin (P02550 whole entry, chain 1 of 2): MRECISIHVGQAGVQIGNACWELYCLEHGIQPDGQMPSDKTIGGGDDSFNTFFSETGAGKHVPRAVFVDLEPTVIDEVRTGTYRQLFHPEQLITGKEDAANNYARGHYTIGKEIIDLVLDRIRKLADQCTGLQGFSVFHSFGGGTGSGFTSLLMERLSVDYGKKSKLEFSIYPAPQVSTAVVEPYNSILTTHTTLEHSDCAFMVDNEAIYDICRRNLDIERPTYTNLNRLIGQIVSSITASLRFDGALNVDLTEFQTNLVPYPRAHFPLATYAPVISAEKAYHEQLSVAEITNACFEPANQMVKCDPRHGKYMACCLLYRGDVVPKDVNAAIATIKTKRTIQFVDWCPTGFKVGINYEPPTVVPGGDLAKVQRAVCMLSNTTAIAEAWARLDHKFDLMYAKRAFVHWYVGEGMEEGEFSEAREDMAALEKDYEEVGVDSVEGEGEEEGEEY
Chain of taxol-stabilized microtubules polymerized from porcine brain tubulin (chain, as listed by the source, chain 2 of 2): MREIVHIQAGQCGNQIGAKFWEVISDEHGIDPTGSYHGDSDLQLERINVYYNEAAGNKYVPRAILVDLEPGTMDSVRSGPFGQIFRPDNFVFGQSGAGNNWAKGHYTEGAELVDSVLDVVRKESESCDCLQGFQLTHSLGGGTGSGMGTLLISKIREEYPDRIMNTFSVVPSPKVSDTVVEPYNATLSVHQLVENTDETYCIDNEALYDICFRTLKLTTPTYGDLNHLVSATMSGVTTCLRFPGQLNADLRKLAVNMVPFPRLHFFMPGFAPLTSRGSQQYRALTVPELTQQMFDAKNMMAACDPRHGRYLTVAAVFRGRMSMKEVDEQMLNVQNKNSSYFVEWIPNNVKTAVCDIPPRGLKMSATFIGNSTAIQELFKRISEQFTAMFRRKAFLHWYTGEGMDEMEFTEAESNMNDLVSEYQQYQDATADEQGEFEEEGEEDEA

Chain of CLIP-170 CG2 fragment (206-288), P30622 H276A (P30622 206-288 H276A): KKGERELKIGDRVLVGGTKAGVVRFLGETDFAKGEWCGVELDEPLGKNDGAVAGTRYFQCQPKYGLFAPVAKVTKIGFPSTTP

On to “CLIP-170 CG2 fragment (206-288), P30622 H276A”, for which the ratio to parent was 0.91.
